Measured values published in PMC6325061.

Biological target: phytochrome B (PhyB), amino acids 1-651, biotinylated (Arabidopsis thaliana) (UniProt P14713)
Sequence of UniProt P14713 (P14713 1-651): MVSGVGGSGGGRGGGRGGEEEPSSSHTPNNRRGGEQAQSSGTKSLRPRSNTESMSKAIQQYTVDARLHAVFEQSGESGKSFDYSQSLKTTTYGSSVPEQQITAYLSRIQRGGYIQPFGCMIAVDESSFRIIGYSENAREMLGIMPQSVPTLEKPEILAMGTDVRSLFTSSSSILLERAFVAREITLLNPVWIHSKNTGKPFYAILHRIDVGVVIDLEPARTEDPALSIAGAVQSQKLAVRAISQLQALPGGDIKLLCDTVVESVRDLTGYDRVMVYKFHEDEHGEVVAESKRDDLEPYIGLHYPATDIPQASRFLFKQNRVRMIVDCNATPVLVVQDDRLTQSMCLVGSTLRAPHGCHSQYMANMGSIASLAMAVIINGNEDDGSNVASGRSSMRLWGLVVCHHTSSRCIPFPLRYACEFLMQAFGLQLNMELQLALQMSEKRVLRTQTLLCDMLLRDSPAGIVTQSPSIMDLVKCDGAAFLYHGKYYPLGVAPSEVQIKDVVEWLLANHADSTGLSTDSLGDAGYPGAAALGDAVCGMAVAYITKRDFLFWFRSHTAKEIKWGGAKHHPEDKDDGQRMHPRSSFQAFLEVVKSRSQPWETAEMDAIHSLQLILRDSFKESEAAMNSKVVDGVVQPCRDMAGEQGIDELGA

“OptoIntegrin: human integrin αVβ3 with PIF^S inserted between Met180 and Lys181 of the β subunit (construct pJB005) (from UniProt Q8L5W7 1-100; P06756 31-1048) (receptor)” was tested, and the cells with paxillin clustering at the cellular periphery, HeLa stably expressing OptoIntegrin on PhyB (1–651)-coated glass, constant 660 nm light was 80 % of cells, the cells with paxillin clustering at the cellular periphery, HeLa stably expressing OptoIntegrin on PhyB (1–651)-coated glass, treated with far-red (740 nm) light was 20 % of cells and the cells with paxillin clusters at the edges, HEK-293T stably expressing OptoIntegrin on PhyB (1–651)-coated glass, constant 660 nm light was 55 % of cells. The cells with paxillin clusters, HEK-293T stably expressing OptoIntegrin on PhyB (1–651)-coated glass, 1.5 h 660 nm then switched to 740 nm for 0.5 h was 40 % of cells.
